This passage reports percent dimer results from PMC2783235.

Test [1] deals with L64C (single-Cys mutant of FT-HT-Xa) (S. cerevisiae) (UniProt D6VTK4). The test can be described thus: cross-linking.
Test [2] has the same target. The test can be described thus: cross-linking. This is another data set of the same source.
The target is the same in test [3]. The test can be described thus: cross-linking. This is another data set of the same source.
Test [4] shares this target. The test can be described thus: SDS-PAGE and western blot of membranes. (In general: Immunoblotting shows a protein as a band on a membrane.)
Test [5] addresses T65C (single-Cys mutant of FT-HT-Xa) (S. cerevisiae) (UniProt D6VTK4). The test can be described thus: cross-linking.
Test [6] shares this target. The test can be described thus: cross-linking. The source holds these as a separate data set.
Test [7] shares this target. The test can be described thus: cross-linking. This is another data set of the same source.
Test [8] shares this target. Nature of the test: SDS-PAGE and western blot of membranes.
Test [9] has as its target S292C (single-Cys mutant of FT-HT-Xa) (S. cerevisiae) (UniProt D6VTK4). The test can be described thus: cross-linking.
Test [10] has the same target. Nature of the test: cross-linking. The source holds these as a separate data set.
Test [11] shares this target. Nature of the test: cross-linking. This is another data set of the same source.
The target is the same in test [12]. Nature of the test: SDS-PAGE and western blot of membranes.
Test [13] addresses L289C (single-Cys mutant of FT-HT-Xa) (S. cerevisiae) (UniProt D6VTK4). The test can be described thus: cross-linking.
Test [14] has the same target. The test can be described thus: cross-linking. This is another data set of the same source.
Test [15] has the same target. Nature of the test: cross-linking. This is another data set of the same source.
Test [16] has the same target. Nature of the test: SDS-PAGE and western blot of membranes.
In test [17] the target is W295C (single-Cys mutant of FT-HT-Xa) (S. cerevisiae) (UniProt D6VTK4). The test can be described thus: cross-linking.
For test [18] the target is unchanged. Nature of the test: cross-linking. This is another data set of the same source.
Test [19] has the same target. Nature of the test: cross-linking. The source holds these as a separate data set.
For test [20] the target is unchanged. The test can be described thus: SDS-PAGE and western blot of membranes.
For test [21], the target named is S293C (single-Cys mutant of FT-HT-Xa) (S. cerevisiae) (UniProt D6VTK4). The test can be described thus: cross-linking.
The target is the same in test [22]. Nature of the test: cross-linking. This is another data set of the same source.
Test [23] shares this target. Nature of the test: cross-linking. The source holds these as a separate data set.
Test [24] has the same target. The test can be described thus: SDS-PAGE and western blot of membranes.
The target in test [25] is A296C (single-Cys mutant of FT-HT-Xa) (S. cerevisiae) (UniProt D6VTK4). Nature of the test: cross-linking.
The target is the same in test [26]. The test can be described thus: cross-linking. The source holds these as a separate data set.
The target is the same in test [27]. The test can be described thus: cross-linking. This is another data set of the same source.
Test [28] shares this target. The test can be described thus: SDS-PAGE and western blot of membranes.
In test [29] the target is L291C (single-Cys mutant of FT-HT-Xa) (S. cerevisiae) (UniProt D6VTK4). The test can be described thus: cross-linking.
For test [30] the target is unchanged. The test can be described thus: cross-linking. This is another data set of the same source.
Test [31] has the same target. Nature of the test: cross-linking. This is another data set of the same source.
Test [32] has the same target. Nature of the test: SDS-PAGE and western blot of membranes.
In test [33] the target is M294C (single-Cys mutant of FT-HT-Xa) (S. cerevisiae) (UniProt D6VTK4). The test can be described thus: cross-linking.
For test [34] the target is unchanged. Nature of the test: cross-linking. This is another data set of the same source.
Test [35] shares this target. The test can be described thus: cross-linking. This is another data set of the same source.
Test [36] has the same target. Nature of the test: SDS-PAGE and western blot of membranes.

For the substance “L64C (single-Cys mutant of FT-HT-Xa) (from UniProt D6VTK4 1-431) (receptor)”, the percent dimer in test [1] is 14.6%; in [2] it was 11.3%; in [3], 13.6%; in test [4] it was 15.8%.

Consider “T65C (single-Cys mutant of FT-HT-Xa) (from UniProt D6VTK4 1-431) (receptor)”, for which the percent dimer in test [5] came out at 15.9%; in test [6] it was 14.4%; in test [7], 12.8%; in test [8], 16.2%.

Take “S292C (single-Cys mutant of FT-HT-Xa) (from UniProt D6VTK4 1-431) (receptor)”: the percent dimer in test [9] came out at 75.5%; in test [10], 82.3%; in test [11], 65.9%; in test [12] it was 30.2%.

For the substance “L289C (single-Cys mutant of FT-HT-Xa) (from UniProt D6VTK4 1-431) (receptor)”, the percent dimer in test [13] stood at 50.2%; in test [14], 61%; in test [15], 40.9%; in [16], 26.8%.

Regarding “W295C (single-Cys mutant of FT-HT-Xa) (from UniProt D6VTK4 1-431) (receptor)”, the percent dimer in [17] amounted to 76.2%; in test [18] it was 95.2%; in test [19], 86.3%; in test [20], 15.7%.

As to “S293C (single-Cys mutant of FT-HT-Xa) (from UniProt D6VTK4 1-431) (receptor)”, the percent dimer turned out to be 38.5% in test [21], 70.2% in test [22], 44% in test [23] and 21.1% in test [24].

Turning to “A296C (single-Cys mutant of FT-HT-Xa) (from UniProt D6VTK4 1-431) (receptor)”, the percent dimer in test [25] turned out to be 73.6%; in test [26], 91.1%; in test [27], 82.1%; in [28] it was 14.8%.

For the substance “L291C (single-Cys mutant of FT-HT-Xa) (from UniProt D6VTK4 1-431) (receptor)”, the percent dimer in [29] is 52%; in test [30], 66.4%; in test [31], 44.5%; in test [32], 31.8%.

Turning to “M294C (single-Cys mutant of FT-HT-Xa) (from UniProt D6VTK4 1-431) (receptor)”, the percent dimer is 57.8% in test [33], 75.6% in test [34], 50.8% in test [35] and 27% in test [36].
